Drawing on the NTF2 design screens of Basanta et al. (2020), this text covers protease stability score for 47 sequences.

A short description of this data set: protease stability score; higher = more stable; yeast display proteolysis, trypsin and chymotrypsin.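 Note: relative to predicted unfolded state with 0 unfolded-like and 1 meaning tenfold more protease.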
With “DEEDEDIHRLFHELVEALLTGDERTLLRLIDPHARLIIGDKHFHGRELIVKIIYEMLRELRVHSINMHHIDVIGEKVVLDVHIHVEQGDKHRIIRVNIISKKIDGRWLIKSIKVH”, the protease stability score is 1.16. With “DEEDEEFKRAMDDWIRAILTGDEQRVEELFDPNVRFQVNGKETVGRDFLIHYVREWRLDSKVDIKRSEVQGDKVRVDVTMKLTIDVNGQRIHDQHKVTIIAEKIDGRWEIKELIVH”, the protease stability score worked out at 0.676. “DEEDEELHRILQLLKEYWKTGDWERFHELADPNPLLIINGVENHGMDSVKHAWEEFRRRIDHNEKIEDKDSKRQGEFIVLHVKVDGHVNGRRTETDMHIILLIVNGKVKDVEIRIR” registered a protease stability score of 1.38. Regarding “DEEDEELRRLLELLLRLYMTGDEHTLQTLADPHMKVRFHWDGREIRDHGRDALERHLKEWRVNDMDVNHFEAFNGRNMIDGILDGIINGVERRHKLELHFDLVNGRVKSVEIVLR”, the protease stability score was determined as 1.08. Turning to “DEEDEERTWAWEIFVKIIRTGDEQKLHEMADPHVRLHVGDKHEHGREELVKFFIDYILSLGVDHIEVHLKREDRINGRIHIDSKLRIEVGDKEITNNTHVLFLKVDGKWILKQVEIK”, the protease stability score was -0.11. The sequence “DEEDEESHRLMRETIHLLLTGDEEVWAQLADPDVRVLFNGVDYHGREEFLRIWHHMVKEIRVDKHEIKTIEVQGDKVLSDIRMHVEFNGKRTKVRVNLRLQSINGRTKYLSIHIH” displayed a protease stability score of 1.21. Turning to “DEEDEETREIAEMLHRWFITGDWKALMKYVDPNMRNIIHVNGRNIHTHGWKDMVKDLKDLGLENIHVDLKSISFQGDKAHIDGQLRVGDKEEKVEIHSEVVNGRIKRLEIRVH”, the protease stability score amounted to 1.9. With “DEEDEHALRMARLWWKALTTGDEELLHKLMDPDVRVEINGVEIHGRETYERFLHKLRRDLGVKHIEIQFHHIELYGEKIIIEGTIFIRQGDKEHKERSIIILVVVDGRIKSSKIILL”, the protease stability score amounted to 2.19. In turn, “DEEDEHFEEVLRRTRHVWKTGDWRRLHELFDPNTRIHVNGRDVIGREEASRIIYEMLRQADHFHYRIRRFEIQGDKIHSEIEVIIIVNGRLIRLDTHVVAIKVNGRWVIESEEIR” gave a protease stability score of 1.48. For “DEEDEHLHQFLEDFKHNLKTGNFEAISKNADPHVRVIFNGRRFHGMENVKRLWEELGVDHVRIDHFELIDGRIDLNTTIEQGDKHRRTRLHILIVNGRIKSIHIHFE”, the protease stability score was 1.16.

In the case of “DEEDEHVKKAAEDFLRWWLTGDESRLLELFDPNMLLIIGDKHIHGRESVVHFFSELRERLGIDHIELEDVHIREVNGRAEFHSHILLHINGQKVKVDVRIHFHKVNGRWLFEHEHVEIR”, the protease stability score is 1.32. Take “DEEDEIAEKIMRIILRAFTTGDEETVEKLVDPHARLEFNGRETHGRESWFKLMHHLRIRRMRIHNERIHTQGDFSLSHVRIEFDGEINGKRVEDETRMEIRVIVVNGVVKSVSLSTE”: the protease stability score amounted to 1.35. The result for “DEEDEILERLFKLWIEEFLTGDWEAFHRYFDPRTRIHIGDKHHHGRTEYEKVAKHLNKRIDHVIIIIRRMEHQGDYIKVDTESRHKIDGVDISTHYILHHRIVDGKIHEIDVIYL” reads 0.647; that for “DEEDEILERNFRKMLEDWKTGDEEMYSKLIDPHAKVDYNGREFVGREYAVEVWHKMGVDHIILRRSDVQGDKIKLDFESRQGDKSSNLKMESEKVNGVWLLHSVRYE”, 1.11; that for “DEEDEILRHFLEEFWRAIRTGDEDTLMHLMDPHAKEEVNGRELHGRHEISRHLVKLGIKHMHIDDSKRYGDKITLHITVEVNGRKIDLEVYAIKVDGRWKIEHSQIK”, 1.05. Sequence “DEEDEITDRLAKLLQHAYHTGDWKLWLNLADPHVRVDFNGVEIHGREEITDWFRKHYRDLGVTRFEVHVHHIHNIGDKIVQETHLLVNGRTFRTEVTIIVINGRVKSEHVNLR” gave a protease stability score of 0.848. For “DEEDEITHKMLRRWFEILATGNEHLFQHYADPNVLVRYEVGDKEWRLHGREEALRYWSELRIHELKVEHFTEVGDKVHMDTRRKGEFDGRRDTKKTRVHIVIIDGRLHNVELRIV”, the protease stability score turned out to be 1.14. Sequence “DEEDEKTRRMAELWSKWKSTGDEELFHHFADPRTRLEIGDKKYHGRDLISKIWFKERKEIRSDINIKDVDVFNGVAILHGTLILEINGQRDSIDVTFHIVLINGRIHEVRVEWR” showed a protease stability score of 0.73. Take “DEEDELAEHLLHIIIDALETGDWKFFADYFDPHTRLEIEIGDKRFQLHGRESIRKRWEEIWRELGVKHREIKSTRLIGDKIEMDVTINVGDKRIRHHIVIVIVNGRMKKEMVIVR”: the protease stability score worked out at 1.19.

Sequence “DEEDELFEIFIREWRRLVKTGNFKEIVDNADPHAKSVINGKELVGREHMSRLMLELGIKYYDERSWDVYGDKVVIHGREKFNGRESESIVFAEKVNGRWVLTKVEIR” had a protease stability score of 1.45. For “DEEDELLERTLKEVAHAWRTGDWRRIEEMFDPNARVDINGVNFVGREEMHRILHEMRIEIEDFKLRRKRIVDGRLELDGEMLGIFRQGDKERRHRSRVFIVILKIDGRWVFEEVRFH”, the protease stability score was 2.43. In the case of “DEEDELLMKVLTEWFHALRTGDEEKLDELADPNVRIEIGDKELHGMEVWQEYLRRYDHDRQDKVHFRTHEKQGNKLILDVEEDVVIEVNGKRIRTHVRSEIILVKINGRWVFTSIIVH”, the protease stability score was found to be 1.34. Consider “DEEDELMKEYFELFWRDLLTGNEELLENLVDPHVRVKVGDKEFHGRHLLSKLASDMGVDHIQIEDMRVQGDKLSIDTTVDVNGKRRRMTLRARKVNGRWFFTELEVR”, for which the protease stability score turned out to be 1.5. The result for “DEEDELSEELSRFSLKTLRTGDEDLLSRNMDPHVRMDIDGQDLHGREHVIKFLKDWNRMFGIKHTELKHVRIQGNWIEIHARIQVGDKEMDLRIYAVKIDGRWLVHSIEVEKK” reads 0.182; that for “DEEDELSHQIAEEFFRFFSTGNEEKSKELLDPDVRVESEDHHDHGMHKLLHLWNRIDHIHMRSRHVEFDRVGDFLEIRMRGHVILDVNGVRTEIDTELLLVVTKFDGRWLMHEVKFIIR”, 0.696; that for “DEEDEMAISLAKLFVDDLMTGNWRSLQHLLDPHTRLHVGDKEHHGRQKSVEWLKDLVRRIDHLEMDIHRLDVQGEKAESETESNVNIGDKEVRYHMELIILVVNGRVKEIEIRLG”, 0.941. “DEEDEQAKELSRIMMEVLRTGDEDMFTKLLDPNVRLEIGEKEDHGRERAMHWLIRFLYRIPNARFIWRDVDVHRINGRVLDTSDLQVRINGRDFKTFVITHIVKIDGRWRVTKLEVHIE” gave a protease stability score of 1.56. Sequence “DEEDEQLHRFAQLYFEAMVTGDEDLLRHLLDPHVRVHINGRELHGRENMAKWLKDFWDKYKNVQLNLHHIRVIGDKVHMDVEMDVNGREERVHIHVEMIDGVVHSSHHRIE” gave a protease stability score of 1.02.

As for “DEEDEQREHLLELLFHFLRTGDEELLFRLADPRVRHVWNGRELHGRELVIEILDDELEKMGANHIHIDLERVRMVDGRLDVDGHIVIKIGDKSHFFDMHFHIRKIDGRWVIKDLTIR”, the protease stability score was 0.853.

Sequence “DEEDERLHEFAKLFADLWFTGDEEELHDLIDPHAKLNVDVNGRILDSHGREEFVKVLRKLREHLGVDHVELKDMKVQGDKVIIHGVLIINGRRFDSTLWVYIFNGKIESMEVRMR” had a protease stability score of 1.69.

Consider “DEEDERNLKLFHLAMLASITGNEELIEQLVDPDVRIEINGRDKHGRETLIKLLERFDHFQWHRFHWRRLEIQGNKIIMLLEVHGTIHIGEFKIKLQTDTISIVTKIDGRWTIKELYIK”, for which the protease stability score is 1.62. Take “DEEDERSKEAMEHFLENEITGDWKRLHELFDPNARMHINGREYHGREEVTNKFWEHNYRMGVKHVEVRDLEVINGRVHLHVEQDVGEFHIELEVVIKKVNGRWLIEETEIHVR”: the protease stability score was determined as 0.987.

For the sequence “DEEDEVLKLAFEFIRHQLETGDEDTLNRYVDPHARFEVNGRDIHGRDRYNRFLEELYRKHGVEIKDVLLQDNKSQGDKIRIDIKINIDVNGREVNFDVHIIALKINGKWIHKRQIDI”, the protease stability score was 0.542. “DEEDEYVEKATRFFIKSILTGNEEWVSRLADPHVRLWVGDKEFHGRERYVRVFHEHMRQIRYRDFKLHDIDRQGDKIIVIGRREVEVDGRIDTYEIHIYARKINGRWILESEIVN” registered a protease stability score of 0.936. Sequence “DEEDEYYNMALEHFVKTILTGNWKRFKKLADPHVRMEIDGREHHGREEATKVFNRFDHIKNFDFRDIELQGEKIEVHGELHGTINGKDVHTSFHIIMYKVNGKWEEKEVKFQ” had a protease stability score of 1.28. As to “DEEDHDLELFLQIMTHDMRTGNEDNLTRLLDPHVRLEWNGKEFHGRDVMRFWREELGHDNVEVHMRLKDRELQGDKLIIHGEIIHRYNGREIRLDIHFIAHKVDGKWIARVRNIQ”, the protease stability score came to 1.64. For the sequence “DEEDHESHEMMRQHFEAFVTGDFESFTRYADPHVRLIVGDKHFHGRDLIVHVFLRLWHELGVKVSRIKEIHSVGDKMHLDGELHVGDKRFRLLVEARKFDGRWFNKRVELVIL”, the protease stability score was 1.48.

In turn, “DEEDHHLRQIFEELLRALVTGDEEFLEQMADPRTRFILIIDGRRIEWHGREEFFRHFHEWRLRNYRITHLESYNGRIRVEGEVDENFNGKERHTKTHHTIIVINGRLHSIVLNIH” registered a protease stability score of 1.72. “DEEDHILLEIMRRVFESIMTGDEDLFRELADPNVRIRIGNKEMVGWEHIVKTLRKEDEDLGAKHKSFTLDDEDLIGNYAHVEGTLHIEFNGKDIHRHIRINVEVIDGRVKSIRMEDK” had a protease stability score of 0.936. For “DEEDHLMKHASEMFLHVMKTGDEDTLRRLVDPHVRLDWNGRKWHGRETVTRIIVENIHELGIDHIHLNHFEIYNGQADTNIEVRYNGKREEYHIHMHKVNGRWTVKSIHVTEE”, the protease stability score is 1.5.

With “DEEDKALEESMRTYHESIHTGDEESFRLLFDPDVRMRINGVDLHGREAMEWMSERIDHLELRRIRFRSIETQGNKIRIDGHEDIEILVDGKRMRVIDRVIIQAVKVNGRWTIKSIKFG”, the protease stability score came to 1.15. In the case of “DEEDKDLHRWLEESTHAMLTGDEQHLTELADPNVKFNFDGREIHGREEYVKFMHRWIRHAGFKHIHVETKDVRVQGNKLHVDTHSIHDYNGRRVRTDTRVFVEKINGRWRLHSIEIE”, the protease stability score was 1.4. “DEEDKEAHEMVNDALQDFLTGDEDSLRNLVDPNARFEAENHHLIGMETVEWHIREFKNVTIEVKRVDVEVQGDKAILRMNIDIRVNGKTIDEHWEVHVRKFNGQWIITIVKVEFR” gave a protease stability score of 2.17. The result for “DEEDKFSREAIELWIRVLETGNEHLLHKLADPHVRVVFNGKESVGMEEFVEVLREIRIHTSRDRHVRLQGDKVDVDSIIDGEVNGVRTKVETQLIATKIDGRWVNQQVNWR” reads 0.23. As for “DEEDKHADWIMKQMVDLWTTGDEETSITLLDPNVKLHVDGRDIHGREKAMEWLRRFIVHLRIEIIIRHFDFQGNFARFHGELEIRIGDKSQVLETRLEIIVVNGKFRILEIELR”, the protease stability score is 2.71. Sequence “DEEDKHLIDMFRILMRTIETGNEEETRKLMDPHTIIEIGDKRSHGWESWKKFIEDLERRFDHVRIEIEDVKVQGDKAIVRTRLKLIVGDKHFEHDTRIFVVMVNGRIHTFRVEID” returned a protease stability score of 1.48. The result for “DEEDKHLQEMVEKLVKNWLTGDWDKLRELLDPNTKSNIGEYTSIGWEKDAEAFEKLIHELGIKHMNFLIRRIHVVDGRAHSDVEIELEVDGRNTEVKTHLIVVIINGRVKSITVEYK” reads 0.297.
